Assay results as given in patent US20140057830A1 (COMPLIX, published 2014).
Numbering of substitutions follows the chain as printed.

T1: human IL-23 (human, UniProt Q9NPF7 20-189; P29460 23-328)
T1 construct: Heterodimer p19/p40; in the ELISA captured on the plate through a biotinylated anti-p40 antibody (clone C8.6); also called cytokine IL-23 (eBioscience, 34-8239-85)
T1 sequence (looked up) 1: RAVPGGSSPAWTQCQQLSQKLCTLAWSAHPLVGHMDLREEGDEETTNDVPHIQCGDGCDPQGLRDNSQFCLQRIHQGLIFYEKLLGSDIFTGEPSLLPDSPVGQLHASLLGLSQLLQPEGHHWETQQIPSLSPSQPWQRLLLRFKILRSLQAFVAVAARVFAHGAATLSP
T1 sequence (looked up) 2: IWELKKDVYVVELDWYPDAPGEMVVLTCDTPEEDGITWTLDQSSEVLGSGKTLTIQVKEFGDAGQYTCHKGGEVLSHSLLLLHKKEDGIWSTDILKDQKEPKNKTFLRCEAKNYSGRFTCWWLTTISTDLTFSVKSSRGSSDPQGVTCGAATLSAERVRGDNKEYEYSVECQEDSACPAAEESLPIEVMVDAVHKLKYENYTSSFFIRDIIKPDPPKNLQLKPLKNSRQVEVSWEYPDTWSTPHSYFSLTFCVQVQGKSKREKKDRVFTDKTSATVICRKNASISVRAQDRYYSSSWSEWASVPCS

B1: SEQ ID NO 38 (designed binder)
chain: GSIEQIQKFIASIQESIARIQKSIYAMTGGSGGSGGGSIEQIQKQIAAIQKQIAAIQKQIYAMTGSGGGGSGGSIEQIQKQITAIARQIVAIIVQITAMTP
notes: Alphabody, AC12 library clone
B2: SEQ ID NO 8 (designed binder)
chain: GSIEQIQKYIAPIQEIIAKIQKLIYAMTGGSGGSGGGSIEQIQKQIAAIQKQIAAIQKQIYAMTGSGGGGSGGSIEQIQKQIGAIISQIGAILGQIYAMTP
notes: Alphabody, AC12 library clone
B3: SEQ ID NO 61 (designed binder)
chain: B1 chain with F9R, S12G, S16Y, R19K, T83S, A86S, I93V, V94S, T97L
notes: Alphabody, AC12 library clone
B4: SEQ ID NO 22 (designed binder)
chain: B1 chain with F9M, S12P, S16L, S23D, T83G, A86T, V90L, I93L, T97G
notes: Alphabody, AC12 library clone
B5: SEQ ID NO 19 (designed binder)
chain: B2 chain with Y9T, P12A, I16C, K19R, L23A, G83R, I86V, G90S, G94I, Y97G
notes: Alphabody, AC12 library clone
B6: SEQ ID NO 20 (designed binder)
chain: B1 chain with F9V, S12R, S16V, R19S, S23Y, T83G, A86V, R87T, V90L, V94S
notes: Alphabody, AC12 library clone
B7: SEQ ID NO 36 (designed binder)
chain: B1 chain with S12P, S16Y, R19A, S23I, T83A, R87S, V90K, I93V, V94T, T97V
notes: Alphabody, AC12 library clone
B8: SEQ ID NO 13 (designed binder)
chain: B1 chain with F9R, S12P, S16C, R19F, S23L, A86G, V90M, I93F, V94I, T97W
notes: Alphabody, AC12 library clone
B9: SEQ ID NO 6 (designed binder)
chain: GSIEQIQKGIALIQEWIAWIQKSIYAMTGGSGGSGGGSIEQIQKQIAAIQKQIAAIQKQIYAMTGSGGGGSGGSIEQIQKQILAISLQIMAILEQIMAMTP
notes: Alphabody, AC12 library clone
B10: SEQ ID NO 43 (designed binder)
chain: B2 chain with Y9L, P12S, I16Y, K19T, G83S, I86M, S87I, G90N, Y97F
notes: Alphabody, AC12 library clone
B11: SEQ ID NO 2 (designed binder)
chain: GSIEQIQKGIARIQEVIAKIQKGIYAMTGGSGGSGGGSIEQIQKQIAAIQKQIAAIQKQIYAMTGSGGGGSGGSIEQIQKQIVAITHQITAIIWQIWAMTP
notes: Alphabody, AC12 library clone
B12: SEQ ID NO 74 (designed binder)
chain: B1 chain with F9K, S12Y, S16M, R19L, S23G, T83S, R87A, V90S, V94K, T97M
notes: Alphabody, AC12 library clone
B13: SEQ ID NO 70 (designed binder)
chain: GSIEQIQKCIAFIQERIAGIQKRIYAMTGGSGGSGGGSIEQIQKQIAAIQKQIAAIQKQIYAMTGSGGGGSGGSIEQIQKQIFAIGKQIFAIVKQILAMTP
notes: Alphabody, AC12 library clone
B14: SEQ ID NO 47 (designed binder)
chain: B13 chain with C9K, F12G, R16V, G19L, R23F, F83R, G86S, K87S, F90Q, K94L
notes: Alphabody, AC12 library clone
B15: SEQ ID NO 71 (designed binder)
chain: B13 chain with C9P, F12A, R16K, G19R, F83M, G86N, K87R, F90L, V93L, K94R
notes: Alphabody, AC12 library clone
B16: SEQ ID NO 23 (designed binder)
chain: B1 chain with S16C, S23T, T83K, A86R, R87T, V90F, I93F, V94R, T97Y
notes: Alphabody, AC12 library clone
B17: SEQ ID NO 33 (designed binder)
chain: B13 chain with C9G, F12P, R16M, G19S, R23V, F83M, G86A, K87F, V93M, K94R
notes: Alphabody, AC12 library clone
B18: SEQ ID NO 64 (designed binder)
chain: B11 chain with G9V, V16P, K19V, G23M, V83S, T86R, H87S, T90L, W94R, W97F
notes: Alphabody, AC12 library clone
B19: SEQ ID NO 3 (designed binder)
chain: B1 chain with F9R, S12F, S16T, R19W, S23N, T83S, V90R, I93L, V94G, T97F
notes: Alphabody, AC12 library clone
B20: SEQ ID NO 59 (designed binder)
chain: B1 chain with F9W, S12L, S16K, S23D, T83N, R87G, V90L, I93A, V94T, T97M
notes: Alphabody, AC12 library clone
B21: SEQ ID NO 5 (designed binder)
chain: B1 chain with S12N, S16L, R19C, S23N, R87S, V90Y, I93V, V94A
notes: Alphabody, AC12 library clone
B22: SEQ ID NO 67 (designed binder)
chain: B13 chain with C9V, F12W, R16S, G19S, F83Q, G86A, K87N, F90T, K94R, L97I
notes: Alphabody, AC12 library clone
B23: SEQ ID NO 9 (designed binder)
chain: B11 chain with G9K, R12T, V16Y, K19Y, G23F, V83K, T86L, H87G, T90G, W94G
notes: Alphabody, AC12 library clone
B24: SEQ ID NO 42 (designed binder)
chain: B1 chain with F9V, S12P, S16Y, R19I, S23Y, T83S, A86M, V90Y, V94S, T97Q
notes: Alphabody, AC12 library clone
B25: SEQ ID NO 26 (designed binder)
chain: B1 chain with F9L, S12V, S16Y, R19L, S23K, T83K, R87T, V90S, V94R, T97F
notes: Alphabody, AC12 library clone
B26: SEQ ID NO 29 (designed binder)
chain: B13 chain with C9L, F12R, R16S, G19M, R23K, F83I, G86A, F90L, K94S, L97K
notes: Alphabody, AC12 library clone
B27: SEQ ID NO 10 (designed binder)
chain: B13 chain with C9K, F12V, R16V, R23G, F83S, G86I, K87I, F90T, L97M
notes: Alphabody, AC12 library clone
B28: SEQ ID NO 50 (designed binder)
chain: B1 chain with F9A, S12K, S16T, R19F, R87G, V90Y, I93L, V94Q, T97F
notes: Alphabody, AC12 library clone
B29: SEQ ID NO 4 (designed binder)
chain: B9 chain with G9T, L12M, W16Y, S23K, L83R, S86V, L87G, E94R, M97T
notes: Alphabody, AC12 library clone
B30: SEQ ID NO 40 (designed binder)
chain: B1 chain with F9G, S12I, S16T, R19Y, V90T, V94A, T97F
notes: Alphabody, AC12 library clone
B31: SEQ ID NO 73 (designed binder)
chain: B1 chain with S16C, R19S, S23V, T83G, R87A, V90I, I93V, V94E, T97V
notes: Alphabody, AC12 library clone
B32: SEQ ID NO 65 (designed binder)
chain: B13 chain with C9T, F12K, G19W, R23V, F83K, G86S, K87Y, F90I, V93M, K94R
notes: Alphabody, AC12 library clone
B33: SEQ ID NO 18 (designed binder)
chain: B13 chain with C9T, F12S, R16V, G19A, R23Y, F83A, K87S, F90I, K94R, L97R
notes: Alphabody, AC12 library clone
B34: SEQ ID NO 27 (designed binder)
chain: B1 chain with F9W, S12Q, S16N, R19D, S23L, T83P, R87Y, V90L, V94R, T97S
notes: Alphabody, AC12 library clone
B35: SEQ ID NO 25 (designed binder)
chain: B2 chain with P12R, I16K, K19Y, L23M, G83I, I86G, G90L, G94D
notes: Alphabody, AC12 library clone
B36: SEQ ID NO 31 (designed binder)
chain: B11 chain with G9T, V16G, K19V, G23L, V83R, T86V, H87R, I93M, W94T, W97F
notes: Alphabody, AC12 library clone

Biological target: T1, human IL-23
Assay: phage ELISA; IL-23 captured by anti-p40 antibody
Method: The set-up of the ELISA was as follows. Neutravidin was immobilized on the plate at a concentration of 0.010 mg/ml in PBS (0.100 ml) for 1 hour at room temperature (RT). Plates were washed 5 times with PBS containing 0.05% Tween 20 (PBST) for 5 min. Subsequently, 0.1 ml Biotinylated anti-p40 antibody (100 nM) was added to the plates in PBS containing 0.1% BSA and incubated overnight at 4° C. or at RT for 1 hour. After incubation, plates were washed 5 times with PBST and blocked with PBS containing 0.1% BSA and 0.5% gelatin (0.120 ml/well) for at least 1 hour at room temperature or overnight at 4° C. After washing 5 times with PBST, 100 nM IL-23 (target) was added to 0.1 ml PBS, 0.1% BSA. For individual negative controls no IL-23 was added (background).
In the meantime, the bacteria plates were centrifuged at 1700 rpm for 10 min to pellet the bacteria. Plates with the immobilized IL-23 were washed 5 times with PBST and 0.050 ml of PBS with 0.2% BSA were added to the plate together with 0.050 ml of the bacterial culture supernatant containing phage. Plates were incubated for 1 to 1.5 hours at room temperature while shaking. Shaking of the plates enhanced the ELISA signals.

Row | binding result | Binder
1 | binds | B1
2 | binds | B2
3 | binds | B3
4 | binds | B4
5 | binds | B5
6 | binds | B6
7 | binds | B7
8 | binds | B8
9 | binds | B9
10 | binds | B10
11 | binds | B11
12 | binds | B12
13 | binds | B13
14 | binds | B14
15 | binds | B15
16 | binds | B16
17 | binds | B17
18 | binds | B18

Row | binding result | Binder
19 | binds | B19
20 | binds | B20
21 | binds | B21
22 | binds | B22
23 | binds | B23
24 | binds | B24
25 | binds | B25
26 | binds | B26
27 | binds | B27
28 | binds | B28
29 | binds | B29
30 | binds | B30
31 | binds | B31
32 | binds | B32
33 | binds | B33
34 | binds | B34
35 | binds | B35
36 | binds | B36
